According to publication PMC2757719, “EBNA1-Mediated Recruitment of a Histone H2B Deubiquitylating Complex to the Epstein-Barr Virus Latent Origin of DNA Replication” (PLoS Pathogens, 2009):

Experiments:
[1] = biological target: T1, USP7 (ubiquitin specific protease USP7), full length (human, UniProt Q93009 1-1102); assay: co-sedimentation; glycerol gradient sedimentation: 50 µg USP7 and 25 µg GMPS, alone or mixed 1 h at room temperature, on 10%–20% glycerol gradients in 50 mM HEPES pH 7.9, 200 mM NaCl, 0.5 mM EDTA; SW41 34,000 rpm, 18 h, 4°C; markers aldolase 158 kDa, catalase 232 kDa; conditions: both partners purified
T1 construct: Ubiquitin specific protease USP7 (HAUSP), human, full length; calculated mass printed as 130 Kd (135 kDa in the introduction); Monomeric by glycerol gradient sedimentation; also called HAUSP; Herpesvirus Associated Ubiquitin Specific Protease

[2] = biological target: the molecule itself; assay: as above
[3] = biological target: T1, USP7 (ubiquitin specific protease …); assay: native gel or EMSA; EBNA1 fragment titrated, preincubated with 10 pmols USP7 or USP7-NTD 10 min at RT before 10 fmoles 32P-labelled DS site 1 DNA (or EBNA1-DNA preformed, then rising USP7, Figure 2C); 20 mM Tris pH 7.5, 200 mM NaCl, 1 µg salmon sperm DNA, 20 µl; 10% polyacrylamide gel; read-out: supershift of the EBNA1-DNA complex; conditions: both partners purified

T1 sequence (Q93009 whole entry): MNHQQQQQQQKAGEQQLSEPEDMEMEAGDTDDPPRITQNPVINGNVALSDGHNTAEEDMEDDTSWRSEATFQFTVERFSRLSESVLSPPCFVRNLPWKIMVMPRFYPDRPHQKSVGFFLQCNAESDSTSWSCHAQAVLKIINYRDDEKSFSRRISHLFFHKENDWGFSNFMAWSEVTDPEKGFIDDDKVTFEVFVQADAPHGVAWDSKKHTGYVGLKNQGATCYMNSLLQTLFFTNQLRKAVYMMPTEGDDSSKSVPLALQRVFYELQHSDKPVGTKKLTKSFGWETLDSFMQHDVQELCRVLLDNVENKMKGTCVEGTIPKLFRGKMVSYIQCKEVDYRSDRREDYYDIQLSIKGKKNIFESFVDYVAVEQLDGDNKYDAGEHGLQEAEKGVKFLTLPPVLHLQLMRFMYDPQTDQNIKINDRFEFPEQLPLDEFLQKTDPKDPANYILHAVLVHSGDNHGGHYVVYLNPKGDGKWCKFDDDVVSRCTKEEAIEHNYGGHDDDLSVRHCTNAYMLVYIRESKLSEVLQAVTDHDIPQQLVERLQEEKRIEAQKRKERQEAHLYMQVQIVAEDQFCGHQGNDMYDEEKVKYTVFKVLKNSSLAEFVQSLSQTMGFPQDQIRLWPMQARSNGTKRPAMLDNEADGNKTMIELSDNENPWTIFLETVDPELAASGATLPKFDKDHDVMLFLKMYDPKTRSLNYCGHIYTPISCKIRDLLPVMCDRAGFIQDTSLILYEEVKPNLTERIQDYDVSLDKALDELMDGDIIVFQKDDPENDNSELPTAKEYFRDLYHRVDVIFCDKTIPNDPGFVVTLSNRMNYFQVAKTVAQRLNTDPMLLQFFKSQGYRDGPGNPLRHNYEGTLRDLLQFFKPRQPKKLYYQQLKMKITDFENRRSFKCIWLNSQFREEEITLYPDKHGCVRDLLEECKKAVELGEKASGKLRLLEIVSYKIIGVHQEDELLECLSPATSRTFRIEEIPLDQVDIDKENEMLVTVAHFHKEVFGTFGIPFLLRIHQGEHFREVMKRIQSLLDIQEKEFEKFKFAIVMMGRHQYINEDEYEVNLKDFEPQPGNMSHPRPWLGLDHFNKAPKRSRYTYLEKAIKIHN

B1: GMP synthetase (GMPS), His-tagged, recombinant (enzyme)
chain: not shown
notes: human GMP synthetase, full-length cDNA (in pOTB7) amplified from the start codon to the stop codon and cloned into pFastBac HT B; mass printed as 77 Kda; also called guanosine 5′ monophosphate synthetase; His-tagged GMPS; source: High Five insect cells infected with baculovirus, purified (nickel resin)
stoichiometry N [1]: 1
stoichiometry N [2]: 2

B2: EBNA1 truncation mutant 395–641 (domain or fragment)
chain: PRRPPPGRRPFFHPVGEADYFEYHQEGGPDGEPDVPPGAIEQGPADDPGEGPSTGPRGQGDGGRRKKGGWFGKHRGQGGSNPKFENIAEGLRALLARSHVERTTDEGTWVAGVFVYGGSKTSLYNLRRGTALAIPQCRLTPLSRLPFGMAPGPGPQPGPLRESIVCYFMVFLQTHIFAEVLKDAIKDLVMTKPAPTCNIRVTVCSFDDGVDLPPWFPPMVEGAAAEGDDGDDGDEGGDGDEGEEGQE
notes: EBNA1 of Epstein-Barr virus, amino acids 395-641, amplified from pc3oriPEBNA1; also called EBNA1_(395–641); EBNA_(395–641); source: E. coli BL21 pLysS (pET15b), purified (Ni-NTA Agarose)
binding result [3]: binds
